Data: a protein production outcome set (Wang et al. 2014)

Experiment: label from the status in PepcDB records

Sequence: HSIPYKNINLPCYFISPANDGEKRDTVMIVSGFDGTLEEEFLMRGLAAVERGYNVIHFAGPGQMDVFRKYPDTYFEPDFEQVVKRIINYFEFRQEINMAKLTLMGISFGGYFATRAASHEPRIKVLIANSPILDLHAYMCSFVKMDPCEMPDSEDFSINDLPSIPNEVMPPQLKAQTEHLIRRFGQPTFKATFHYLREFTVGDSLNHIKIPCLALLGSGEGGEPGKQFAEFCKITNSAQYEFSDFEGAGSHCQVGNVSYSNAVVYDWLDSL
- protein production: not failed

Sequence: MRSVTVSGFLTLIISGIMLIPSPAYSKIDTTLNTSSFIGAYLAGRVANHENKTDLAIKYFKKALTYKPENIETQVEMLEAMLFSGAFKEAVKQAQKLKKQGITNPFVSLTLSIESLIKKDYNKAKILLQLKTLPAANNPIPELIGAWATFGSGYQSQAITHLQKIQGPAWYKLFINYHLALMCDLAGHKQNAQKYFTQALNTQQATLIAPNTYEHIIIAYASFQLRSKMRIQALQTLKHGEQMLPGREIFKNIREKIEKGASLERLIKTPQQGTGEVLYNFGTTLNHKNSQRIARIFTQLSLILSPENDAIMFHLANISAKVNDLNQAIKLYRSLPQSSPYYRVGQLQLAFILANNNNHSEAIKLLTSLKKKNPNDRHILITLSALYMQDNKFTEATKTLDRAIAQITNFQQDDWKLFYQRGIAFERLQQWSKAENDLRKALDFFPNQPQVLNYLGYSLVERGEKLEESLHMLQKASTLQPQNSHILDSLGWAYYKLKQYNQAVQILGNAVRLQPEDPTLNDHLGDVYWRVGRKREAMFQWNHAIDGEAKNSKEIQEKLKFGLQ
- protein production: failed

Sequence: MTAIAPVITIDGPSGAGKGTLCKAMAEALQWHLLDSGAIYRVLALAALHHHVDVASEDALVPLASHLDVRFVSTNGNLEVILEGEDVSGEIRTQEVANAASQVAAFPRVREALLRRQRAFRELPGLIADGRDMGTVVFPDAPVKIFLDASSEERAHRRMLQLQEKGFSVNFERLLAEIKERDDRDRNRAVAPLVPAADALVLDSTTLSIEQVIEKALQYARQKLALA
- protein production: failed

Sequence: MAVNVYSTSVTSENLSRHDMLAWVNDSLHLNYTKIEQLCSGAAYCQFMDMLFPGCVHLRKVKFQAKLEHEYIHNFKVLQAAFKKMGVDKIIPVEKLVKGKFQDNFEFIQWFKKFFDANYDGKDYNPLLARQGQDVAPPPNPGDQIF
- protein production: not failed

Sequence: MDLVVITETTIPTKITHVNKKSSDELLRKFADPDDVDESSKSTKRRKKSAKSSSREKGVDIESNTSGLVERKRLLLAPASKRRSLFIRQLASGKSHLRNKSLVRTIGKTWRKTMEGASRVFIEKHYNRHRRLTNDVV
- protein production: failed

Sequence: MSKELTAKKRAALNRLKTVRGHLDGIVRMLESDAYCVDVMKQISAVQSSLERANRVMLHNHLETCFSTAVLDGHGQAAIEELIDAVKFTPALTGPHARLGGAAVGESATEEPMPDASNM
- protein production: not failed

Sequence: MNNLIITTRQSPVRLLVDYVATTILWTLFALFIFLFAMDLLTGYYWQSEARSRLQFYFLLAVANAVVLIVWALYNKLRFQKQQHHAAYQYTPQEYAESLAIPDELYQQLQKSHRMSVHFTSQGQIKMVVSEKALVRA
- protein production: failed

Sequence: MRREKTMDTLIRSIMIKSKRKMDAKVAQFGLTTQQARVLGFLNDNAANEIIQKDLQRIFQTRGASITSLIQGLEKKQLISRKPSIRDGREKVVTLTEEGKRIVDEFNESFPREDDKAKKILSADEYKIFIDLLSKIDDNTELEHHHHHH
- protein production: not failed

Sequence: MTGVLSGMAKTYLEFSDPNGAEHKFYEVTVDGPELTIRYGRIGTDGQRSTKTFPDAAVAQAEADKKIREKRKKGYEDAVMGARQKRTVVRREVTETRSTTRQIAPVLWRFKTRSAAYGIFVDQNTAWVGNDSGEVFALTLSGEVDRSFRLPDGVKCLVSDQFRTFAGCDDGNVYDLSGKLPFMAYEVESKAALLWLDLHGGTLGVSDSGGGVYAFDAESDQQWGHTDDRASMGWMVRVDARGVYYGHSRGVGMFDRESGFPNWHRPTRGSVLFGWQEGNDLYAGTSANLIQRFTKAGEHVQDYQCDGSVLSCAASPGGEFVFAGDSGSAVYCFNRAGERLWKLGTGCASALSMQFAADKLYIVTTNGTLAAIDVSPAAIEAARQGTTPEVRDVKLAAAMPAQAPATELTVTRNASGGVLLRGVQEGSKVRIRPDDSRFHKDWNVQFPRNLRAADGLYVVDDLEDAGGFYRVVGDLRRLENLEHHHHHH
- protein production: not failed

Sequence: MSVNDTGHSDNYTWNRQVYHRLKLALSLGLRRQLFLAVCDDLHLRNQVAARLHSTLAYPVGQVLYQSLDGKEASTSAYPRLVTLRLNLNEPNPIAQINQWLANYPPPIVGASKDNPGKPLPIPTFQLVGVEQLTKQTVASQRLFLHYLRLSEQFFAAQESSRFLESSVLLWVSRPWLSAIQQSAPQFWRWRTGVFVFAGEPTPTTQNSGHPERFSNSRSVKLGNLEQSALDELSMEGEVRSPSTTEFNFGDEVSLPTEILGNHPQPKEETPPLISELPPTQQKPQELTVRSSAANSSSLLSLSHVSQELTDLVLATINTKISSEAEDDWQPQELLLEIEELHSQSASGEILAAAYHQLGNLYRLRIEQGQSTLEDLMVAIIAYQESISYDENSPQLPDILNDLGTLYWMLYRTPPNLEEGQTYIEQGIEFYELALKIISPETHPDTYARVHNNLGTAYGDLARFASPAENWQQAVVSYSKALLHRTVESDPLKYAACQNNLGTAYWHLAQYNQPVVHLKKAIASYKQSLAHYNPQDEPLKYGMIQNNVGTAYWNLAQYEQPGENLQLAIDVYSEALKYRTAAMVPNACAATQNNLGTAYWHLANLPQTTKDVRQKLLILCINAYEEAIALAHSLSNVSLSFDLFATHNNLGLAHYQLVTDNYFSGDKGRRSHHLEAALDNHLQALNGLSKQPEAYQATFAYVVKTVRAFHNELGIQGQNLALSKVPGHLLPEILPKL
- protein production: failed

Sequence: MKITLEHWFYNWLFEYRIKDLKPKSFERYESIYRNYIKDTDLGNVKLKYLRVSHIQKYYNRLLDSNKSIPTIRQINTKLKTCLSEAEKQGLIQRNYCTMVNIPLEHHHHHH
- protein production: not failed

Sequence: MGKALLIVNPSSGKEKGKTYQGKTEEVLKKRYDEVEVRLTEKAGDATEFASWASEQGFDAVIAMGGDGTLNETINGLAIHEKRPDFGFIPLGTVNDLARSVGIPLKPEKAIQALEKAKAIPMDIGRIGDQYFMNVLAIGMIAQAVDQVSVEQKTKFGSVAYFLEGLKAFNRNELLHFKLEYDEEVWEGEAALVVAGLTKSVGGMESWAPDAKIDDGYLHVVVLTKLGLLDAANMIPQLIRGNLKNSDGVVYIKTKKLTIDASGDDLSINVDGDPGPGVPAEIEVLGSHLNILAPKKSSQKRFGPFILKK
- protein production: failed

Sequence: MIPIVDSRIGAYLDGLLPEADPVVAAMEQIARERNIPIVDRQTGRLLYLLARIKQPQLVVVPGDGLGCASWWFARAISISSRVVMIDPDRDNVEHARRMLHDNGLIDRVELQVGDPLGIAAGQRDIDILFMDCDVFNGADVLERMNRCLAKNALLIAVNALRRGSVAESHEDPETAALREFNHHLSRRRDFFTTIVPVGNGVLLGYRLS
- protein production: not failed

Sequence: METEYDQVLRSVAQVNIADQIGESDDVERDGNGVKVSCFTEVFDDVTIQFQIIRLAKQIYVWVGCNSAKFGSLYAAASTRPSNTVSVTSVLGGTSDNTGSGIARRLVLKTGLNIILACNIPKNNPLLEAKAEKVLIRKLIDLGYTMSKPVRAT
- protein production: failed

Sequence: MVTLTLLEPQQKTPLKQWCFENSSVIRIGRAADNHVILSDNLVSRHHLEIRQVSSGGGGSWQVVSKGTNGTFLNGVLVIQDALPNNALLQLAQGGPILQFQVQGIIPPEWQSISGSDSPLSGRGSLAEKSSPELSNNPGSLTCTHEGNSPQNLFCIHCGQPLSVIQTIRHYQVLRTLGQGGMGTTYLAWDAAGVIVGHPKLLVLKQMNADMARIAKAQELFEREAYTLKSLDHPGIPRYYDFFVEGGKKYLAMELVHGQDLEKRIYATGPVIPSLAIAWMIQTCDILDYLHRQEQPLIHRDIKPANLMVRTANNQIAVLDFGAVKEIGTTPGTRIGAEGYCAPEQERGQPLTQSDLYAIGPTIIFLLTGENPFKFYRQKGRGFRFDVSKIPTITPKLRDVIERTTEPLPRDRFQSAKELAAALAACK
- protein production: failed

Sequence: MVKKIVNPINIIVVVMHISVSIYALFVNVPFKAELFKDNVVLCIYVITFYIGFLLLGDFFRERKIFRKRNDGNRESKTISIIGGIFLFAGILLGMSSVMTIYNIKVDASEYSIGRIIFDTIKVDNVKRESTTSKPQGIFVQRSITTIRTEEVDGISVKSNKRVEFKHCYLYGWQVIEGKIYNVKYLPTTHRILSIEEKK
- protein production: failed
